Measurements reported in US20090048161A1 (VALORISATION HSJ SOCIETE EN COMMANDITE, published 2009).
Where no end group is shown, it is not given here. [ ]: non-standard residue; d: D form. dOrn = NCCC[C@@H](N)C(=O)O

What was measured:
Test in all cases: cell-based or functional assay
[1] = biological target: VEGFR-2 (Flk-1) (human, UniProt P35968 20-1356)
[2] = biological target: T1, human Insulin-like growth factor 1 receptor (IGF-1R) (human, UniProt P08069 31-1367)
[3] = biological target: T1, human Insulin-like growth factor 1 …; remark: listed apart in the source
[4] = biological target: T2, human Interleukin-1 receptor (IL-1R-alpha) (human, UniProt P14778 18-569)
T2 sequence: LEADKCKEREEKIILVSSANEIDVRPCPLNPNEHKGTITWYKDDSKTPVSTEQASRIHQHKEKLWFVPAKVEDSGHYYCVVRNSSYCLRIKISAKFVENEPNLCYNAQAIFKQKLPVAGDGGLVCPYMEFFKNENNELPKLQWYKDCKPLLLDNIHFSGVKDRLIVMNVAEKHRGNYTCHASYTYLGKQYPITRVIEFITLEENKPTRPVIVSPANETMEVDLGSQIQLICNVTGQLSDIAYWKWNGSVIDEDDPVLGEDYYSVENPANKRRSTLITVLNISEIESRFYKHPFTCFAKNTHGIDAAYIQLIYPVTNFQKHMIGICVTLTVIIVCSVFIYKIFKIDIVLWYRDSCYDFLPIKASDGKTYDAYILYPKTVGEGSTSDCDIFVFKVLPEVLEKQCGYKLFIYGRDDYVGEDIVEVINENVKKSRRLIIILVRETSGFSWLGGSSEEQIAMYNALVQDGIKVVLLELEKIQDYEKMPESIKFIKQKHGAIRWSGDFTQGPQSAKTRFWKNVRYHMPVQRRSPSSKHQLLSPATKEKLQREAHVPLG

[5] = biological target: T2, human Interleukin-1 receptor …; remark: listed apart in the source
[6] = biological target: T1, human Insulin-like growth factor 1 …; remark: listed apart in the source
[7] = biological target: T3, IL-1R of pig (piglet pial vessels; porcine endothelial cells) (porcine (piglet), UniProt A0A5G2QSI4 18-572)
T3 sequence: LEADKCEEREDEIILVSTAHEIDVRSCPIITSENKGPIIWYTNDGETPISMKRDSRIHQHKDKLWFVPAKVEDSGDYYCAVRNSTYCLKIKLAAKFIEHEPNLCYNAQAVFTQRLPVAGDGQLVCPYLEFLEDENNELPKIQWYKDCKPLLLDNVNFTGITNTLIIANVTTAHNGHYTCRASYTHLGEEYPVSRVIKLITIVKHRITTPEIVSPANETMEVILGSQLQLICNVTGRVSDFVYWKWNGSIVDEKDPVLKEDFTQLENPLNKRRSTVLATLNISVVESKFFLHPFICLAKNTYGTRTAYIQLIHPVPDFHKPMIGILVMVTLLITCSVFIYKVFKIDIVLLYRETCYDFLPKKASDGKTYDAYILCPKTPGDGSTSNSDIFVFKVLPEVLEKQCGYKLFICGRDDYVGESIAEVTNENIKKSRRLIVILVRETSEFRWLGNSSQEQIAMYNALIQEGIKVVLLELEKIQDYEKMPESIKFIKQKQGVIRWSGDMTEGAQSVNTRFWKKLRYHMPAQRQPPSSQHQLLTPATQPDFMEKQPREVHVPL

[8] = biological target: T1, human Insulin-like growth factor 1 …; remark: listed apart in the source
[9] = biological target: IGF-1 receptor of rat aorta (rat, UniProt P24062 31-1370)
Chain of IGF-1 receptor of rat aorta (P24062 31-1370): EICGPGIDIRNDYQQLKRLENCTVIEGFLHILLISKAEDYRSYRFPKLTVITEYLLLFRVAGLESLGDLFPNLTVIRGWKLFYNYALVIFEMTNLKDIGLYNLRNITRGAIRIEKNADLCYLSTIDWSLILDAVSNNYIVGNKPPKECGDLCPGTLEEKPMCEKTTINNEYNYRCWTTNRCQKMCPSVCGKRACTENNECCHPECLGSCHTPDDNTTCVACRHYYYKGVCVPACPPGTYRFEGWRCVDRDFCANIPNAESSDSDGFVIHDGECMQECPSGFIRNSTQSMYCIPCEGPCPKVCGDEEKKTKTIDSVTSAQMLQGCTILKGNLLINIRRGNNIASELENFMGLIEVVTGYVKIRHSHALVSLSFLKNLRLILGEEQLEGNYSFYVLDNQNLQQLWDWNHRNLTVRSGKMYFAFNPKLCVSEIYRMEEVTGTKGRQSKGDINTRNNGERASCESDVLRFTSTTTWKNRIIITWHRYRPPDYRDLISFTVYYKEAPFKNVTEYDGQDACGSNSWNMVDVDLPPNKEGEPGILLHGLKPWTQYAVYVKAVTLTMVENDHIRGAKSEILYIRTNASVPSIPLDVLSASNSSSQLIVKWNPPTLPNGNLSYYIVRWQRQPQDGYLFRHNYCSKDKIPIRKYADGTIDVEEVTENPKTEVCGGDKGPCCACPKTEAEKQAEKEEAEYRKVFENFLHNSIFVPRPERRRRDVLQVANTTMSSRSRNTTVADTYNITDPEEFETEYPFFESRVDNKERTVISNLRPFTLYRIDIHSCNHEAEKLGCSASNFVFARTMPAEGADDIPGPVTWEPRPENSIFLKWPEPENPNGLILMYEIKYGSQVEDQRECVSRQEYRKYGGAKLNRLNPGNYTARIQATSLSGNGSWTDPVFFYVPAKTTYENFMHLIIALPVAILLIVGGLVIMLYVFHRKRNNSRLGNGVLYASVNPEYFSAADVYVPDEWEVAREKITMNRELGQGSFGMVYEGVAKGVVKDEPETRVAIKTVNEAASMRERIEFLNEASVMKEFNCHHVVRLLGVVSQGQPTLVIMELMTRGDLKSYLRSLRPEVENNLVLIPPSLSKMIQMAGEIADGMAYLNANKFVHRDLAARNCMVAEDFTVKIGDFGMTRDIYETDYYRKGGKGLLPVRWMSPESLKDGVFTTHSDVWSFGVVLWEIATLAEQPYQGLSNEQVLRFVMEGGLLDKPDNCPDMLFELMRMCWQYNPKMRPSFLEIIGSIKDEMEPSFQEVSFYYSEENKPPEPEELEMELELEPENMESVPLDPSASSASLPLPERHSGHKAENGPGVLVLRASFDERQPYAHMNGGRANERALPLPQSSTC

[10] = biological target: T3, IL-1R of pig (piglet pial vessels; …); remark: listed apart in the source
[11] = biological target: IL-1R (cells or tissue whose species or assay the filing does not state at that place)
[12] = biological target: T2, human Interleukin-1 receptor …; remark: listed apart in the source

T1 sequence (P08069 31-1367 limits assumed): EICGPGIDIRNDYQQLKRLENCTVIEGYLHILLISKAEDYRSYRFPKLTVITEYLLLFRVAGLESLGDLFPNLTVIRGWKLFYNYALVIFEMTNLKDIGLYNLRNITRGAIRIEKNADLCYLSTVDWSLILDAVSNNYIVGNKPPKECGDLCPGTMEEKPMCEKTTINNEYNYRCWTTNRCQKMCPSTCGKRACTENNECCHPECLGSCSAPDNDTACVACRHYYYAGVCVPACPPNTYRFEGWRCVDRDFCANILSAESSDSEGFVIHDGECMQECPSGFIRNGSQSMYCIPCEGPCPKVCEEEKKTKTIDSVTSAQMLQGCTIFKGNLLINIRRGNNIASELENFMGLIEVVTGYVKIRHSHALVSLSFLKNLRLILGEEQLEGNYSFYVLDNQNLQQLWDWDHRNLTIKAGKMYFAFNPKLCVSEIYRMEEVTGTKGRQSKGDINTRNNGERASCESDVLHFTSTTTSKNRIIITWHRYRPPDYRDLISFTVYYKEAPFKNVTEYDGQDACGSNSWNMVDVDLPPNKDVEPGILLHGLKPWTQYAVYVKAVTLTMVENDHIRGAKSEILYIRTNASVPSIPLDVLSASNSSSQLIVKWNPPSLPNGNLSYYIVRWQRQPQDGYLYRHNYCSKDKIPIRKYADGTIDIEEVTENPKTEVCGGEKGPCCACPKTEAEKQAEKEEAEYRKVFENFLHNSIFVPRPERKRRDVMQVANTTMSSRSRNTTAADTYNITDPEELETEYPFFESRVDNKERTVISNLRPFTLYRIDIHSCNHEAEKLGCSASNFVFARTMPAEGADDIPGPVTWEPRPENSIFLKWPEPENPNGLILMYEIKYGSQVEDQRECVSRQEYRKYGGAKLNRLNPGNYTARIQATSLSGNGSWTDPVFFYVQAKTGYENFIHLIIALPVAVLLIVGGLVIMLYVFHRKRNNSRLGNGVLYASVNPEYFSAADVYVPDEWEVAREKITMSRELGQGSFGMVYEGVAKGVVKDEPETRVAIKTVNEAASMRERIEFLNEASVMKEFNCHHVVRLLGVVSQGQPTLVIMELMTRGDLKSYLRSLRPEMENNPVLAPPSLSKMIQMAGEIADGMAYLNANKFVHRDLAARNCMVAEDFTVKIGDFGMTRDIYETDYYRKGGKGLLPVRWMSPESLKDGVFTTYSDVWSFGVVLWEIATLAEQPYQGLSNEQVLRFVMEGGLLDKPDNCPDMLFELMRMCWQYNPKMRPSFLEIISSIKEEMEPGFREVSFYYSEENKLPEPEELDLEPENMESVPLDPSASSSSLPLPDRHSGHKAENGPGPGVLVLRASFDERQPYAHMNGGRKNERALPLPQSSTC
Chain of VEGFR-2 (Flk-1) (P35968 20-1356 limits assumed): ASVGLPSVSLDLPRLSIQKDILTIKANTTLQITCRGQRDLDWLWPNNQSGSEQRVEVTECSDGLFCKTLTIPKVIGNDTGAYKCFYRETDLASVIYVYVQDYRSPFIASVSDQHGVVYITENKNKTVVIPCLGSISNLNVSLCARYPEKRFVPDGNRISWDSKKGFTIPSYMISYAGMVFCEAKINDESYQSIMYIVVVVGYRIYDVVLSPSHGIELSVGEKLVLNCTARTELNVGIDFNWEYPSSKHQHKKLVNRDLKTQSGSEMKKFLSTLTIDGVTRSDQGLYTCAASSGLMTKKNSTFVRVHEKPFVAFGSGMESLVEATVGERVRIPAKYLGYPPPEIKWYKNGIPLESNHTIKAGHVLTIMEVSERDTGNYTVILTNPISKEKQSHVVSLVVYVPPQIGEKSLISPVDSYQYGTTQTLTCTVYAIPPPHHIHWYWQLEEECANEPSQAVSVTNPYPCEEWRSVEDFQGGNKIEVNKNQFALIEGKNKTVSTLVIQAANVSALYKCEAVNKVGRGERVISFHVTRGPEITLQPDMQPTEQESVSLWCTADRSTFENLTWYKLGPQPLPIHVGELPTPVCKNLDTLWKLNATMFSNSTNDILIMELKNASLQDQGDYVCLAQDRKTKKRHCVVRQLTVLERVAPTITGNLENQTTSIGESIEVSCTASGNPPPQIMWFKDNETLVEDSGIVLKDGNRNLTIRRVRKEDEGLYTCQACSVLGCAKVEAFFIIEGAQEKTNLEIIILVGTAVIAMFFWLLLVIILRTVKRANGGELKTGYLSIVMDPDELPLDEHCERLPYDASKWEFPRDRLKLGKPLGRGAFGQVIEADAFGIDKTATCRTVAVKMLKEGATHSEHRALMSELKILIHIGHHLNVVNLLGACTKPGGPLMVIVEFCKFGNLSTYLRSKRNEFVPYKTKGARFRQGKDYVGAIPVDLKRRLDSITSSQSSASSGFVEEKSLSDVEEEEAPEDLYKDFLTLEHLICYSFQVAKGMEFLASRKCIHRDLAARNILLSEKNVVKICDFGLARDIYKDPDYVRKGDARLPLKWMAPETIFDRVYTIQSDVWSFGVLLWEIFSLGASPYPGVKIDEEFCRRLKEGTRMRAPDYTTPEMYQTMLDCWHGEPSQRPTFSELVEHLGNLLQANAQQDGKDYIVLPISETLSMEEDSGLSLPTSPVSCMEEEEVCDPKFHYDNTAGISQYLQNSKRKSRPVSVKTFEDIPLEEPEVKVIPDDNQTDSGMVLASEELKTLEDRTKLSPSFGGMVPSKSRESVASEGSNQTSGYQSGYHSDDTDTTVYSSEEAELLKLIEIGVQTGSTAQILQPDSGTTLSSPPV

B1: VEGFR peptide 2.2 (peptide)
peptide: [dE][dA][dT][dV]G[dE][dR][dV][dR][dL]
modifications: not fully specified (residue 5)
EC50, VEGF (2 ng/ml)-induced proliferation, 3H-thymidine, PAEC transfected with Flk-1 [1]: 9000 nM

B2: APG-201 (peptide)
peptide: [dS][dL][dF][dV][dP][dR][dP][dE][dR][dK]
EC50, IGF-1 (50 ng/ml)-induced proliferation, MCF-7 [2]: 35 nM | EC50, IGF-1 (50 ng/ml)-induced proliferation, MDA-MB-231 [2]: 0.1 nM | Emax, IGF-1 (50 ng/ml)-induced proliferation, MCF-7 [2]: 20% | Emax, IGF-1 (50 ng/ml)-induced proliferation, MDA-MB-231 [2]: 100% | EC50, IGF-1 induced proliferation, 3H-thymidine, A549 carcinoma cells [3]: 1000 nM

B3: API-101.135 (peptide)
peptide: R[dY][dT][dP][dE][dL]
Emax (%), IL-1β-induced TF-1 proliferation [4]: 63%

B4: API-101.129 (peptide)
peptide: [dR][dY][dT][dP][dE][dV]
Emax (%), IL-1β-induced TF-1 proliferation [4]: 50% | IC50, IL-1β-induced TF-1 proliferation [4]: 400 nM

B5: API-103 (peptide)
peptide: MKLPVHKLY
EC50, IL-1 induced proliferation, 3H-thymidine, A549 carcinoma cells [5]: 1000 nM

B6: APG-206.9 (peptide)
peptide: TVLSNL
Emax, IGF-1-induced proliferation, NIH3T3-IGF-1R cells [6]: 90% | IC50, IGF-1-induced proliferation, NIH3T3-IGF-1R cells [6]: 20 nM

B7: API-101.117 (peptide)
peptide: [dR][dY][dT][dP][dD][dL][dA]
Emax (%), IL-1β-induced PGE2 synthesis in endothelial cells (porcine) [7]: 100% | IC50, IL-1β-induced PGE2 synthesis in endothelial cells (porcine) [7]: 0.01 nM

B8: APG-206.5 (peptide)
peptide: KERTVLS
Emax, IGF-1-induced proliferation, NIH3T3-IGF-1R cells [6]: 75% | IC50, IGF-1-induced proliferation, NIH3T3-IGF-1R cells [6]: 0.5 nM | Emax, proliferation, MCF-7 (breast cancer) cells [8]: 100% | IC50, proliferation, MCF-7 (breast cancer) cells [8]: 9 nM

B9: API-101.126 (peptide)
peptide: [dOrn][dY][dT][dP][dE][dL]
Emax (%), IL-1β-induced TF-1 proliferation [4]: 0%

B10: APG-205 (peptide)
peptide: ENFLHLLLA
EC50, inhibition of ex vivo IGF-1-induced vasorelaxation of rat aorta [9]: 70 nM | Emax, inhibition of ex vivo IGF-1-induced vasorelaxation of rat aorta [9]: 25% | EC50, IGF-1 (50 ng/ml)-induced proliferation, MCF-7 [2]: 0.1 nM | EC50, IGF-1 (50 ng/ml)-induced proliferation, MDA-MB-231 [2]: 100 nM | Emax, IGF-1 (50 ng/ml)-induced proliferation, MCF-7 [2]: 60% | Emax, IGF-1 (50 ng/ml)-induced proliferation, MDA-MB-231 [2]: 100%

B11: API-101.11 (peptide)
peptide: [dY][dT][dV][dE][dL][dA]
percent of IL-1β-induced WI-38 (human lung fibroblasts) proliferation abolished, 3H-thymidine [5]: 100%

B12: APG-202 (peptide)
peptide: [dE][dS][dD][dV][dL][dH][dF][dT][dS][dT]
EC50, IGF-1 (50 ng/ml)-induced proliferation, MCF-7 [2]: 300 nM | Emax, IGF-1 (50 ng/ml)-induced proliferation, MCF-7 [2]: 20% | EC50, IGF-1 induced proliferation, 3H-thymidine, A549 carcinoma cells [3]: 10 nM

B13: API-101.103 (peptide)
peptide: [dR][dY][dT][dV][dQ][dL][dA]
IC50, PGE2 measurement, human WI-38 cells [5]: 50 nM

B14: API-101 (peptide)
peptide: [dA][dP][dR][dY][dT][dV][dE][dL][dA]
EC50, IL-1 induced proliferation, 3H-thymidine, A549 carcinoma cells [5]: 1000 nM | IC50, IL-1-induced PGE2 synthesis, WI-38 cells [5]: 790 nM | percent of IL-1β-induced WI-38 (human lung fibroblasts) proliferation abolished, 3H-thymidine [5]: 65% | IC50, IL-1-induced PGE2 synthesis, endothelial cells [10]: 220 nM | IC50, prevention of IL-1β (75 ng/ml)-induced vasodilation, piglet pial vessels [10]: 182 nM

B15: API-101.107 (peptide)
peptide: [dR][dY][dT][dP][dE][dL][dA]
IC50, PGE2 measurement, human WI-38 cells [5]: 100 nM | IC50 (assay not given) [11]: 0.0012 nM

B16: API-101.113 (peptide)
peptide: [dR][dY][dT][dP][dE][dL]
Emax (%), IL-1β-induced TF-1 proliferation [4]: 70% | Emax (%), IL-1β-induced proliferation in TF-1 cells (human) [12]: 100% | Emax (%), IL-1β-induced PGE2 synthesis in endothelial cells (porcine) [7]: 80% | IC50, IL-1β-induced PGE2 synthesis in endothelial cells (porcine) [7]: 0.0074 nM

B17: API-101.128 (peptide)
peptide: [dR][dW][dT][dP][dE][dL]
Emax (%), IL-1β-induced TF-1 proliferation [4]: 100% | IC50, IL-1β-induced TF-1 proliferation [4]: 3 nM

B18: APG-206 (peptide)
peptide: KERTVISNLR
EC50, inhibition of ex vivo IGF-1-induced vasorelaxation of rat aorta [9]: 689 nM | Emax, inhibition of ex vivo IGF-1-induced vasorelaxation of rat aorta [9]: 75% | EC50, IGF-1 (50 ng/ml)-induced proliferation, HepG2 [2]: < 0.1 nM | EC50, IGF-1 (50 ng/ml)-induced proliferation, MCF-7 [2]: 2 nM | Emax, IGF-1 (50 ng/ml)-induced proliferation, MCF-7 [2]: 60%

B19: API-101.114 (peptide)
peptide: [dK][dY][dT][dP][dE][dL][dA]
Emax (%), IL-1β-induced PGE2 synthesis in endothelial cells (porcine) [7]: 50% | IC50, IL-1β-induced PGE2 synthesis in endothelial cells (porcine) [7]: 0.002 nM

B20: API-101.133 (peptide)
peptide: [dK][dY][dT][dP][dE][dL]
Emax (%), IL-1β-induced TF-1 proliferation [4]: < 10%

B21: API-101.10 (peptide)
peptide: [dR][dY][dT][dV][dE][dL][dA]
modifications: also: 125I-labelled form used as tracer, site not given here
IC50, IL-1-induced PGE2 synthesis, WI-38 cells [5]: 0.2 nM | percent of IL-1β-induced WI-38 (human lung fibroblasts) proliferation abolished, 3H-thymidine [5]: 100% | IC50, IL-1-induced PGE2 synthesis, endothelial cells [10]: 1.2 nM | IC50, prevention of IL-1β (75 ng/ml)-induced vasodilation, piglet pial vessels [10]: 10.8 nM

B22: APG-206.7 (peptide)
peptide: ERTVLSNL
Emax, IGF-1-induced proliferation, NIH3T3-IGF-1R cells [6]: 100% | IC50, IGF-1-induced proliferation, NIH3T3-IGF-1R cells [6]: 20 nM | Emax, proliferation, MCF-7 (breast cancer) cells [8]: 90% | IC50, proliferation, MCF-7 (breast cancer) cells [8]: 0.01 nM

B23: API-101.115 (peptide)
peptide: [dOrn][dY][dT][dP][dE][dL][dA]
Emax (%), IL-1β-induced proliferation in TF-1 cells (human) [12]: 100% | IC50, IL-1β-induced proliferation in TF-1 cells (human) [12]: ~0.001 nM

B24: APG-203 (peptide)
peptide: RTNASVPSI
EC50, inhibition of ex vivo IGF-1-induced vasorelaxation of rat aorta [9]: 96 nM | Emax, inhibition of ex vivo IGF-1-induced vasorelaxation of rat aorta [9]: 50% | EC50, IGF-1 (50 ng/ml)-induced proliferation, HepG2 [2]: < 0.1 nM | EC50, IGF-1 (50 ng/ml)-induced proliferation, MCF-7 [2]: 8 nM | EC50, IGF-1 (50 ng/ml)-induced proliferation, MDA-MB-231 [2]: 0.1 nM | Emax, IGF-1 (50 ng/ml)-induced proliferation, MCF-7 [2]: 45% | Emax, IGF-1 (50 ng/ml)-induced proliferation, MDA-MB-231 [2]: 100%

B25: VEGFR peptide 2.1 (peptide)
peptide: [dA][dQ][dE][dK][dT][dN][dL][dE][dI][dI][dI][dL][dV]G
modifications: not fully specified (residue 14)
EC50, VEGF (2 ng/ml)-induced proliferation, 3H-thymidine, PAEC transfected with Flk-1 [1]: 9000 nM

B26: API-101.127 (peptide)
peptide: [dR][dF][dV][dP][dE][dL][dA]
Emax (%), IL-1β-induced TF-1 proliferation [4]: < 30%

B27: API-106 (peptide)
peptide: VGSPKNAVPPV
EC50, IL-1 induced proliferation, 3H-thymidine, A549 carcinoma cells [5]: 10000 nM

B28: APG-206.8 (peptide)
peptide: RTVLSNL
Emax, proliferation, MCF-7 (breast cancer) cells [8]: 100% | IC50, proliferation, MCF-7 (breast cancer) cells [8]: 0.6 nM

B29: API-101.116 (peptide)
peptide: [dR][dW][dT][dP][dE][dL][dA]
Emax (%), IL-1β-induced proliferation in TF-1 cells (human) [12]: 75% | IC50, IL-1β-induced proliferation in TF-1 cells (human) [12]: 0.5 nM | Emax (%), IL-1β-induced PGE2 synthesis in endothelial cells (porcine) [7]: 45% | IC50, IL-1β-induced PGE2 synthesis in endothelial cells (porcine) [7]: 0.013 nM
